The results in this text go back to patent US10836815B2, “Generation and comparative kinetic analysis of new glycosynthase mutants from Streptococcus pyogenes endoglycosidases for antibody glycoengineering” (UNIVERSITY OF MARYLAND, COLLEGE PARK, priority 2017, dated 2020).

One experiment concerns rituximab. Nature of the experiment: Hydrolysis activity assay of Endo-S and D233 mutants, LC-ESI-MS. The class given is biochemical. The note with it: rituximab 1.0 mg/mL as substrate, enzyme 0.01 mg/mL, PBS pH 7.4, 30° C., 5 min, duplicate. On the procedure:
(§1) The hydrolytic activity of the mutants generated was evaluated using rituximab as the substrate, and the transglycosylation activity was evaluated using the sugar oxazoline and the deglycosylated rituximab as the donor and acceptor substrates, respectively (Scheme 1).
(§2) The LC-MS characterization of different antibody glycoforms was conducted on an Exactive Plus Orbitrap instrument (Thermo Scientific). The intact antibody sample was analyzed with a Waters XBridge™ BEH300 C4 column (3.5 μm, 2.1×50 mm). The program includes a 9 min linear gradient of 5-90% MeCN containing 0.1% formic acid at a flow rate of 0.4 mL/min. The original mass data were processed through deconvolution and integration through MagTran Software (Amgen).
(§3) Peptide-N-Glycosidase F (PNGase F) treated rituximab was used as the internal standard due to its similarities to the deglycosylated and transferred product in terms of their molecular structures and ionization efficiencies. After PNGase F treatment, a mutation will be introduced into the amino acid sequence of rituximab so the product antibody will not interfere with the reaction via re-glycosylation^35. A standard product S2G2F-rituximab was synthesized following the previously reported procedure^29. […] Serial dilutions containing a gradient of S2G2F-rituximab (0, 0.25, 0.5, 0.75, 1.0, 1.25 and 1.5 μM) were mixed with a stock solution containing 0.67 μM internal standard. These mixed sample solutions were quantified by selected ion monitoring (SIM) to calculate the single-point normalization factor^31. The factor could then be used to calculate the relative amount of the final product N-glycoform for each reaction in the following experiments.
(§4) The hydrolytic activity of each Endo-S mutants and the wild-type (0.01 mg/mL) was assayed in PBS (pH 7.4, 10 μl) at 30° C. with synthetic biantennary sialo-complex-type rituximab (1.0 mg/mL, 6.9 μM) as the starting material. Each reaction was terminated at 5 min and an aliquot was taken from the reaction mixture and dissolved in 0.1% formic acid. The relative quantity of the hydrolysis product was calculated through deconvolution and integration of the selected MS peaks. The experimental details of product quantification using LC-MS are illustrated below. The transglycosylation activity of Endo-S was measured in a similar fashion: deglycosylated Rituximab (10.0 mg/mL, 69 μM) was incubated with SCT-Oxa (1.38 mM, 20 eq) under catalysis of Endo-S enzymes (0.01 mg/mL) under the same condition as hydrolysis. The transglycosylation product SCT-Rituximab was analyzed as mentioned above. Both functional assays were repeated twice for each mutant and the wild-type, and the average activity was recorded

Another experiment deals with deglycosylated rituximab. Nature of the experiment: Transglycosylation activity assay of Endo-S and D233 mutants, LC-ESI-MS. The class given is biochemical. On the procedure:
as §1, §2, §3, §4

B1: Endo-S D233Q (protein)
chain: MDKHLLVKRTLGCVCAATLMGAALATHHDSLNTVKAEEKTVQVQKGLPSIDSLHYLSENSKKEFKEELSKAGQESQKVKEILAKAQQADKQAQELAKMKIPEKIPMKPLHGPLYGGYFRTWHDKTSDPTEKDKVNSMGELPKEVDLAFIFHDWTKDYSLFWKELATKHVPKLNKQGTRVIRTIPWRFLAGGDNSGIAEDTSKYPNTPEGNKALAKAIVDEYVYKYNLDGLDVQVEHDSIPKVDKKEDTAGVERSIQVFEEIGKLIGPKGVDKSRLFIMDSTYMADKNPLIERGAPYINLLLVQVYGSQGEKGGWEPVSNRPEKTMEERWQGYSKYIRPEQYMIGFSFYEENAQEGNLWYDINSRKDEDKANGINTDITGTRAERYARWQPKTGGVKGGIFSYAIDRDGVAHQPKKYAKQKEFKDATDNIFHSDYSVSKALKTVMLKDKSYDLIDEKDFPDKALREAVMAQVGTRKGDLERFNGTLRLDNPAIQSLEGLNKFKKLAQLDLIGLSRITKLDRSVLPANMKPGKDTLETVLETYKKDNKEEPATIPPVSLKVSGLTGLKELDLSGFDRETLAGLDAATLTSLEKVDISGNKLDLAPGTENRQIFDTMLSTISNHVGSNEQTVKFDKQKPTGHYPDTYGKTSLRLPVANEKVDLQSQLLFGTVTNQGTLINSEADYKAYQNHKIAGRSFVDSNYHYNNFKVSYENYTVKVTDSTLGTTTDKTLATDKEETYKVDFFSPADKTKAVHTAKVIVGDEKTMMVNLAEGATVIGGSADPVNARKVFDGQLGSETDNISLGWDSKQSIIFKLKEDGLIKHWRFFNDSARNPETTNKPIQEASLQIFNIKDYNLDNLLENPNKFDDEKYWITVDTYSAQGERATAFSNTLNNITSKYWRVVFDTKGDRYSSPVVPELQILGYPLPNADTIMKTVTTAKELSQQKDKFSQKMLDELKIKEMALETSLNSKIFDVTAINANAGVLKDCIEKRQLLKK
As for B1, the “Specific Hydrolysis Activity” value in the experiment with rituximab is 0.05 100*(μmol/min/mg). Further, in the experiment with deglycosylated rituximab (deglycosylated rituximab 10.0 mg/mL, SCT-Oxa 1.38 mM (20 eq), enzyme 0.01 mg/mL, PBS pH 7.4, 30° C., duplicate), the “Transglycosylation Activity” value is 0.98 100*(μmol/min/mg). Further, the “Transglycosylation/Hydrolysis Ratio T/H” value with deglycosylated rituximab (ratio of transglycosylation to hydrolysis activity, Table 1) is listed as 19.60.
